US10739331B2, “OMA1 activity assay” (BioVentures, LLC, priority 2017, dated 2020)
Entries after “also recorded” stand apart in the source; their conditions may differ. Non-standard residues stand in square brackets, D forms with d. Residues, ends and D or L forms follow the SMILES beside them. No end group written: not given here. *: point of attachment. Sta = CC(C)C[C@H](N)[C@@H](O)CC(=O)O; Mca = COc1ccc2c(CC(=O)*)cc(=O)oc2c1; DNP = 2,4-Dinitrophenyl, quencher; Isovaleryl = CC(C)CC(=O)*

Tests used:
[1] = molecular target: T1, OMA1 (Homo sapiens, UniProt Q96E52); conditions: prior studies (refs 12, 24); cited from earlier work
T1 sequence (Q96E52 144-524): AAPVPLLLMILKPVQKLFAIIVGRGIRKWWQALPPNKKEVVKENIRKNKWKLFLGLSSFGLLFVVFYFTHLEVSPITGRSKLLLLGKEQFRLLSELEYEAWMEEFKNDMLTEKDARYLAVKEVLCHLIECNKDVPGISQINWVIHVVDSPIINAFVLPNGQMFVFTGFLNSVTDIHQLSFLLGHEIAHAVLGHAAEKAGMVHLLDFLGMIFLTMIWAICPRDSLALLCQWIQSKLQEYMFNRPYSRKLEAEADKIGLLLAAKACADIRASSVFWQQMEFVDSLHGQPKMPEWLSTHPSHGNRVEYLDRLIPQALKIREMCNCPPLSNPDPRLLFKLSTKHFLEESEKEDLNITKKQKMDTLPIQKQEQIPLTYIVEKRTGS

[2] = molecular target: T2, OMA1 (Rattus norvegicus, UniProt D3ZS74); experiment: OMA1 activity assay in rat renal mitochondrial lysates after cold storage / transplantation; format: biochemical; conditions: cold storage alone or followed by transplant
T2 construct: Renal cell lysates from normal rat kidney (NRK) epithelial cell line were prepared; endogenous in cells; host or cells: NRK-52E (ATCC CRL-1571), RIPA lysate, 5 µg protein per well
T2 sequence (D3ZS74 123-504): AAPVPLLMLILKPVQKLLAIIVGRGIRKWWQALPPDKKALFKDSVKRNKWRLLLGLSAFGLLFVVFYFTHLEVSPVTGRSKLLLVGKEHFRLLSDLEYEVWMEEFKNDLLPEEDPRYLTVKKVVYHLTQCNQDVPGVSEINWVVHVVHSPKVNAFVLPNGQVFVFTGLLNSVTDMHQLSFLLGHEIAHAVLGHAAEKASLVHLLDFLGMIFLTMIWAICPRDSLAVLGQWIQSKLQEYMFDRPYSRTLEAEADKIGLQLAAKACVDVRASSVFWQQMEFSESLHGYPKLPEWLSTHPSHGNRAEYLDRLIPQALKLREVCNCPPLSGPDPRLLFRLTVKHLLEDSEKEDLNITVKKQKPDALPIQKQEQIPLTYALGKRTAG
Source text: Long-term renal function is compromised in patients receiving deceased donor kidneys which require cold storage exposure prior to transplantation. It is established that extended cold storage plus transplantation of kidneys induces renal mitochondrial dysfunction. To assay OMA1 activity under stress conditions known to induce mitochondrial dysfunction an exemplary reporter molecule of the invention was employed in mitochondrial lysates from control kidneys (CTRL), sham surgery (SH), cold storage alone (CS), or cold storage and transplantation (CS/TX) conditions.
Our OMA1 activity assay utilizes an 8-mer peptide derived from the cleavage sequence of OPA1, which is reported to be specific of OMA1 which is referred as the OPA1 FRET substrate. The peptide contains a fluorogenic MCA moiety on the N-terminus and a DNP quencher moiety on the C-terminus (FIG. 1), which was custom-synthesized by LifeTein LLC and handled accordingly to the manufacturer's instructions. […] Fluorescence was recorded (excitation/emission of 320/405 nm) once per minute for 30 min at 37° C. using a fluorescent plate reader (SpectraMax M2e, Molecular Devices equipped with SoftMax Pro v5 software).

[3] = molecular target: T2, OMA1; experiment: OMA1 activity assay (OPA1 FRET substrate) in NRK cell lysates; format: biochemical; conditions: for decrease of OMA1 activity compared to the standard substrate sequence: modified 8-mer FRET substrate vs AFRATDHG
Experimental: Normal rat kidney cells (NRK-52E; ATCC No. CRL-1571) were maintained in a humidified incubator with 5% CO2, 95% air at 37° C. in DMEM containing 5% fetal bovine serum. Renal cell lysates from normal rat kidney (NRK) epithelial cell line were prepared by using radioimmunoprecipitation assay (RIPA) buffer (Pierce) with 1 mM PMSF (Sigma), 1.2 mM Na3VO4 (Sigma), 2.5 mM NaF (Sigma), 1 mM DTT (Sigma), 1× of Halt Protease & Phosphatase inhibitor cocktail (Thermo Scientific), and 5 mM EDTA (Thermo Scientific). Protein concentrations were determined by Coomassie Plus Protein Assay Reagent (Pierce).
Our OMA1 activity assay utilizes an 8-mer peptide derived from the cleavage sequence of OPA1, which is reported to be specific of OMA1 which is referred as the OPA1 FRET substrate. The peptide contains a fluorogenic MCA moiety on the N-terminus and a DNP quencher moiety on the C-terminus (FIG. 1), which was custom-synthesized by LifeTein LLC and handled accordingly to the manufacturer's instructions. Using a final 100 μl reaction volume and black, opaque 96 well plates (Costar), the reagents were added in the following order: 1) OMA1 activity assay buffer (50 mM of Tris/HCl, pH=7.5, 40 mM of KCl), 2) 5 μg of protein sample, 3)+/−200 μM of the zinc chelator N,N,N′,N′-Tetrakis (2-pyridylmethyl)ethylenediamine (TPEN) resuspended in 100% ethanol and lastly, 4) the OPA1 FRET substrate (5 μM final concentration; dissolved in DMSO). Fluorescence was recorded (excitation/emission of 320/405 nm) once per minute for 30 min at 37° C. using a fluorescent plate reader (SpectraMax M2e, Molecular Devices equipped with SoftMax Pro v5 software).
For the statistical analysis, the average fluorescence of the OPA1 FRET substrate alone was measured (<150 relative FLS units) and that value was subtracted from the sample values. The values were reported as a difference of TPEN inhibition [(sample X)−(sample X+TPEN)] where the slopes between 0-30 min were calculated (by linear regression) and each treatment were compared to appropriate controls. Thus, OMA1 activity was calculated by […] to enhance specificity.

[4] = molecular target: T2, OMA1; experiment: as above; format: biochemical; conditions: untreated NRK cell lysates (5 μg), substrate 1-30 μM, Michaelis-Menten
[5] = test system: OMA1; experiment: Live-cell OMA1 activity assay with mitochondrial targeted FRET peptide; format: cell-based, rat; conditions: NRK-52E cells, FRET peptide 10 μM, 4 hr, antimycin A 50 nM, 30 min, preliminary
Source text: Live-Cell OMA1 activity assay: To deliver the FRET OMA1 peptide to mitochondria in living cells, we utilized a modified short Szeto-Schiller (SS) peptide sequence1 attached to the amino terminus of the 8 amino acid FRET sequence (custom synthesized by LifeTein) (FIG. 5A). […] Small molecule/peptide library subsets or novel peptides will be screened for inhibitory activity using this live-cell OMA1 assay.
Live-cell OMA1 activity assay preliminary results: To deliver the FRET peptide to mitochondria in living cells, we have used a modified short Szeto-Schiller (SS) mitochondrial targeting peptide sequence1 (d-arginine, dimethyl tyrosine, ornithine, tryptophan) attached to the amino terminus of the eight amino acid FRET sequence (FIG. 5A). Normal rat kidney (NRK-52E; ATCC No. CRL-1571) cells were plated on black 96-well cell culture plates (10,000 cells/well). The next day, the cell permeable peptide was added to cells (10 μM; 4 hr; 37° C.) followed by exposure to ATP depletion/antimycin A (50 nM; 30 min) and OMA1 activity measured (ex/em 320/405) using a plate reader. […] Future studies will optimize the mitochondrial targeting sequence so that the highest efficiency of mitochondrial localaization without altering mitochondrial oxidant levels will be achieved, which we predict will yield the highest sensitivity for the live-cell OMA1 activity assay.

[6] = Table 2, slope over 30 min, % comparison to AFRATDHG, 2-3 experiments/substrate
[7] = Table 1, average slope over 30 min compared to AFRATDHG substrate, n = 3

## CCOC(=O)[C@H]1O[C@@H]1C(=O)N[C@@H](CC(C)C)C(=O)NCCC(C)C [E64D]
[1]
  prevention of OMA1-dependent OPA1 cleavage: do not prevent OMA1-dependent OPA1 cleavage

## c1ccc(CN(CCN(Cc2ccccn2)Cc2ccccn2)Cc2ccccn2)nc1 [TPEN, N,N,N′,N′-Tetrakis (2-pyridylmethyl)ethylenediamine]
[2]
  effect on reporter fluorescence (FLS) increase: effectively inhibits FLS increase; also recorded: effectively inhibits the reporter molecule activation
[3]; NRK cell lysates with TPEN (200 μM in method) vs untreated lysates
  effect on OMA1 activity (slope, FLS/min): reduced OMA1 activity; also recorded: dramatically decreased fluorescence

## CCCCC[C@H](CC(=O)NO)C(=O)N[C@H](C(=O)N1CCC[C@H]1CO)C(C)C [actinonin]
[3]; NRK cell lysates, 0.5-1 μM, vs untreated lysates
  effect on OMA1 activity (slope, FLS/min): neither the broad-spectrum MMP inhibitor, batimastat (0.5-1 μM), or the meprin A inhibitor, actinonin (0.5-1 μM), altered OMA1 activity
[3]; NRK cell lysates, 0.5-1 μM, vs untreated lysates, listed as Actinonin
  effect on OMA1 activity (slope, FLS/min): Only TPEN reduced OMA1 activity

## CC(C)CC(=O)N[C@H](C(=O)N[C@H](C(=O)N[C@@H](CC(C)C)[C@@H](O)CC(=O)N[C@@H](C)C(=O)N[C@@H](CC(C)C)[C@@H](O)CC(=O)O)C(C)C)C(C)C [pepstatin A] (Isovaleryl-VV[Sta]A[Sta]-OH)
[1]
  prevention of OMA1-dependent OPA1 cleavage: do not prevent OMA1-dependent OPA1 cleavage

## AARAAAAA (Mca-AARAAAAA; not fully specified (C-terminus); also: FRET fluorophore and quencher, sites not given here) [FRET substrate with RA motif flanked by alanine residues]
[3]; [6]
  OMA1 Activity: 35%
[3]
  decrease of OMA1 activity compared to the standard substrate sequence: 65%

## AFKATDHG (Mca-AFKATDHG; not fully specified (C-terminus); also: FRET fluorophore and quencher) [FRET substrate with Arg changed to Lys]
[3]; [6]
  OMA1 Activity: 61%
[3]
  decrease of OMA1 activity compared to the standard substrate sequence: ~40%

## AFRATDHG (Mca-AFRATDHG-{DNP}) [MCA-AFRATDHG-DNP, eight amino acid OPA1 S1-site peptide with MCA fluorophore on the N-terminus and DNP quencher on the C-terminus]
[4]
  Vmax for cleavage of the OPA1 FRET substrate: 34.6 FLS/min
[4]; read-out: Km for cleavage of the OPA1 FRET substrate
  Km: 7.1 µM
[3]; [7]
  OMA1 Activity: 100%
[3]; [6]
  OMA1 Activity: 100%

## ATDHGSES (Mca-ATDHGSES; not fully specified (C-terminus); also: FRET fluorophore and quencher) [eight amino acid FRET peptide from OPA1 downstream of the cleavage site, no RA motif]
[3]; FRET peptide downstream of cleavage site
  fluorescence of FRET peptide without R-A sequence: abolished fluorescence
[3]; [7]
  OMA1 Activity: 2.71%
[3]; [6]
  OMA1 Activity: 2.71%

## antimycin A
[5]
  OMA1 activity (fluorescence) in live cells: increased OMA1 activity
[5]; listed as AMA
  OMA1 activity (fluorescence) in live cells: induces OMA1 activity

## pefabloc/TPCK
[1]
  prevention of OMA1-dependent OPA1 cleavage: do not prevent OMA1-dependent OPA1 cleavage
